The record followed here is patent US20040138133A1 (Scripps Research, published 2004).

In the assay the target is T1, Nck (adapter protein) from detergent extracts of human endothelial cells (human, UniProt P16333 2-377, limits assumed).
T1 construct: Endogenous protein pulled down from a cell lysate
The assay is described as follows: peptide-agarose pull-down from human endothelial cell lysate, anti-Nck western blot. Here is the method: Affinity Chromatography. PRO or control peptides containing an N-terminal cysteine were dissolved in about 1 ml of coupling buffer (50 mM tris pH 8.0, 5 mM EDTA) and about 0.5 ml at about 3 mg/ml peptide added to about 2 ml of activated thiol-Sepharose (Pharmacia). Samples were incubated at a temperature of about 4° C. overnight with 1% β-mercaptoethanol added to block unreacted sites. Beads were rinsed and stored at a temperature of about 4° C. Endothelial cell cultures in 15 cm dishes were extracted in about 1.0 ml of cold (about 4° C.), lysis buffer (20 mM pH 7.4 sodium phosphate, 100 mM NaCl, 1% Triton X-100, 10 mM NaF, 2 mM EDTA, 1 mM sodium orthovanadate, 1 mM PMSF, 10 μg/ml each of leupeptin and aprotinin). The extracts were centrifuged for about 10 minutes at top speed in a microfuge and the supernatants were then removed. A 0.5 ml sample of each extract was incubated with about 10 μl of packed beads for about 1 hour, with rotation at a temperature of about 4° C. The beads were rinsed with lysis buffer (about 4×0.5 ml) and dissolved in SDS sample buffer (about 0.04 ml). Samples were analyzed by SDS PAGE on 10% gels and immunoblotting with anti-NCK (Santa Cruz) and HRP-protein A as secondary, and then were developed and detected using enhanced chemiluminescence (ECL kit, Amersham). […]
A general note: A western blot detects proteins with antibodies after separation by electrophoresis.

No end group written: not given here.

With KAGAPPMRNTSTMC (also: C-terminal Cys coupled to thiol-Sepharose (agarose) beads, also called mutant peptide), the binding result is listed as “no binding”.
